# Assay results published in PMC6062542, “Structural and Biochemical Characterization of AaL, a Quorum Quenching Lactonase with Unusual Kinetic Properties” (Scientific Reports, 2018).
# T1: AaL (Alicyclobacillus acidoterrestris, UniProt T0BMH6)
# T1 construct: gene K1I37_05175; codon-optimized synthetic gene; N-terminal Strep tag (WSHPQFEK) + TEV site (ENLYFQS), tag cleaved with TEV; homodimer
# T1 sequence (T0BMH6 1-282): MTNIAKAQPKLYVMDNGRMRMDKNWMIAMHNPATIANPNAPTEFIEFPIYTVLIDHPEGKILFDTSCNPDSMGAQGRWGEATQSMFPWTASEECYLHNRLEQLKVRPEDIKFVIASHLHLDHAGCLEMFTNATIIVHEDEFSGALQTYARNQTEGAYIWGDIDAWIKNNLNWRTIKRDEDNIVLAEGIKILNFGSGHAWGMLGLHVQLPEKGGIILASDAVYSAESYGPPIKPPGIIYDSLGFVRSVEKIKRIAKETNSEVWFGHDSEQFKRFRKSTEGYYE
# B1: AaL (Alicyclobacillus acidoterrestris ATCC 49025) (protein)
# chain: T1 sequence (T0BMH6 1-282)
# notes: codon-optimized synthetic gene; N-terminal Strep tag (WSHPQFEK) + TEV site (ENLYFQS), tag cleaved with TEV; homodimer
# Tests used:
# [1] = target: T1, AaL; experiment: X-ray crystal structure, […] Å, crystal soak; assay type: binding; details: soaked 10 min with 20 mM C6-AHL; active site, two cobalt cations; modelled occupancy 0.7
# [2] = substrate: O=C1CCCCO1; experiment: purified protein; assay type: biochemical, Alicyclobacillus acidoterrestris; details: 2.5 mM Bicine pH 8.3, 150 mM NaCl, 0.2 mM cresol purple, 0.5% DMSO, 0.2 mM CoCl2, room temperature
# [3] = substrate: CCCCCC1CCCC(=O)O1; experiment: purified protein; assay type: biochemical, Alicyclobacillus acidoterrestris; details: 2.5 mM Bicine pH 8.3, 150 mM NaCl, 0.2 mM cresol purple, 0.5% DMSO, 0.2 mM CoCl2, room temperature
# [4] = substrate: O=C1CCCO1; experiment: purified protein; assay type: biochemical, Alicyclobacillus acidoterrestris; details: 2.5 mM Bicine pH 8.3, 150 mM NaCl, 0.2 mM cresol purple, 0.5% DMSO, 0.2 mM CoCl2, room temperature
# [5] = substrate: CCCC1CCC(=O)O1; experiment: purified protein; assay type: biochemical, Alicyclobacillus acidoterrestris; details: 2.5 mM Bicine pH 8.3, 150 mM NaCl, 0.2 mM cresol purple, 0.5% DMSO, 0.2 mM CoCl2, room temperature
molecule,measurement,setting,value
CCCCCC(=O)N[C@H]1CCOC1=O [C6-AHL],"X-ray crystal structure, 1.8 Å, crystal soak",[1],the structure of AaL bound to C6-AHL could be solved
B1,Km,[2],18.7 ± 0.4 µM
same,kcat,[2],8.4 ± 0.4 s⁻¹
same,kcat/Km,[2],450000 ± 90000 M⁻¹ s⁻¹
same,Km,[3],18.5 ± 0.4 µM
same,kcat,[3],8.4 ± 0.6 s⁻¹
same,kcat/Km,[3],450000 ± 100000 M⁻¹ s⁻¹
same,Km,[4],171.0 ± 36.1 µM
same,kcat,[4],23.5 ± 1.7 s⁻¹
same,kcat/Km,[4],140000 ± 30000 M⁻¹ s⁻¹
same,Km,[5],36.9 ± 8.9 µM
